Source: the supplement of paper PMC10724198
± gives the standard deviation of the averaged measurements.

Test system: Saccharomyces cerevisiae
Assay: protein stability index of tFT-peptide fusion (C-terminal peptide) (PSI (0-1 scale)); higher = more stable (slower turnover)
Details: genetic background: wild type; temperature: 30 C
Experimental: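 Multiplexed protein stability (MPS) profiling in S. cerevisiae. Random 12-aa peptides (tFT-X12 library) are fused to the C-terminus of a sfGFP-mCherry tandem fluorescent timer, after mCherry and a GGGS linker. Cells are FACS-sorted into 8 mCherry/sfGFP bins and deep-sequenced. The protein stability index (PSI) is the read-weighted bin average, scaled from 0 (unstable) to 1 (stable). Only peptides with >10 reads are reported; cells were grown at 30 °C in SC-His with glucose.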
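Note: PSI is a weighted mean of sequencing reads over stability bins, variants kept only with over 10 reads, mCherry proximal and sfGFP distal, peptide attached via GGGS linker.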

Sequence | protein stability index
RVLRREKPVVHC | 0.603 ± 0.008
PPFTLRPQVPTH | 0.664 ± 0.0097
RRAAVGGCLGGW | 0.726 ± 0.017
PMPGATDCQRGC | 0.615 ± 0.053
IWVGNEENEEII | 0.669 ± 0.082
IKSTYRNPLPPL | 0.657 ± 0.038
PSFLPPAPLGIS | 0.741 ± 0.038
GSSPPSARVRLF | 0.763 ± 0.03
GAIKKTQGGGYK | 0.69 ± 0.019
FGFLELTDPHGC | 0.576 ± 0.023
ICSLLIRREELV | 0.681 ± 0.081
WLGTGIILPITG | 0.793 ± 0.13
FPPHPPPPPPLN | 0.743 ± 0.041
RGVLRSETCRLS | 0.7104 ± 0.0069
GFFSCAPFPFNG | 0.741 ± 0.082
PPLFRPPASAPR | 0.715 ± 0.018
YRLLRINFALPI | 0.622 ± 0.025
RAARVSVVAYPF | 0.682 ± 0.0094
SVKHTFAHSVNS | 0.6442 ± 0.0018
RDVRNRARVKRE | 0.693 ± 0.012
GGRAQVGGWWGR | 0.774 ± 0.031
RRHRPKNEVPLC | 0.705 ± 0.029
LGWVGGGGGWGC | 0.704 ± 0.03
NLRLYDCKVAPP | 0.691 ± 0.036
NTTITKMYTKEW | 0.714 ± 0.05

Sequence | protein stability index
MERAGTADGGGA | 0.662 ± 0.016
SGGVLSNGRLAA | 0.684 ± 0.052
FCGDDVCLTHFG | 0.729 ± 0.029
RGARGGRLVCRE | 0.689 ± 0.043
PTPPLPYRPRSP | 0.674 ± 0.014
RFTIPFSVQRVD | 0.721 ± 0.094
GREEKQGAENRT | 0.65 ± 0.018
DLRFLQFGFIPW | 0.752 ± 0.043
GGWWGRAGENTR | 0.729 ± 0.075
RTSNARLLPRIG | 0.681 ± 0.034
FFTPSKQSQAYC | 0.662 ± 0.027
GGGARGDCLMGS | 0.6809 ± 0.0018
PPALSLPAPLLP | 0.6592 ± 0.0039
GVVWMSGGGWWG | 0.761 ± 0.03
SEGKQYITGRWK | 0.702 ± 0.084
FPLPPHSSPLPP | 0.695 ± 0.037
PPPPLSAPPFSS | 0.697 ± 0.051
LGGGVVCGVWGG | 0.704 ± 0.03
RLPPPSPPVPLL | 0.695 ± 0.0081
PPSPPPPTGLCL | 0.745 ± 0.078
PAPLSRPLSPTL | 0.6841 ± 0.0055
GPEAVARIFDDE | 0.708 ± 0.0095
KPLPPPEFRPHP | 0.69 ± 0.02
PLFYSLCFFCGL | 0.667 ± 0.044
FKVVLGRLGVRA | 0.53638 ± 6.4e-06

Sequence | protein stability index
MPFYPSLLTSLL | 0.678 ± 0.014
YAAQLGLGVLVG | 0.6 ± 0.0077
TARSTSPHHIPR | 0.835 ± 0.22
TGIDLPHFVSLF | 0.658 ± 0.088
IVKFVRAIGRKK | 0.664 ± 0.028
RLDGVTPVRTCL | 0.661 ± 0.054
GGGGGGGGAWSG | 0.723 ± 0.037
GFAALLSSLFFL | 0.683 ± 0.061
SGRIHLLHSPWV | 0.712 ± 0.052
GSSVRGSLGREI | 0.711 ± 0.028
EAYRVTYPYMYP | 0.726 ± 0.0086
FLQIPVQILPDP | 0.705 ± 0.027
APGGACINIQLM | 0.663 ± 0.044
SAKQTYFKRVAQ | 0.66 ± 0.042
EAIMNSLLFAVD | 0.664 ± 0.0088
SVGGVGVEIQSV | 0.629 ± 0.15
GRRAGGTGAPSR | 0.642 ± 0.016
ELEGKIMNITVW | 0.661 ± 0.024
RLWKQPWLTMAF | 0.496 ± 0.038
ASGPLPPHPIAD | 0.677 ± 0.011
PRFPYGPFDFSI | 0.669 ± 0.046
LSDLDSMVMIVP | 0.869 ± 0.16
DSSLDWGREARA | 0.649 ± 0.075
